Experimental data: the supplement of paper PMC11316812
± gives the standard deviation of the averaged measurements.

Assays:
hTERT-HMEC = assay: percentage of EdU-negative (G0-arrested) nuclei per well, 72 h; higher = more G0 arrest; details: reference: sequence is the full UniProt precursor, the tested protein was the secreted form or ectodomain
MCF7 = assay: as above; details: reference: sequence is the full UniProt precursor, the tested protein was the secreted form or ectodomain
[1] = protein concentration 0.0237143 µM
[2] = protein concentration 0.237143 µM
[3] = protein concentration 0.0085 µM
[4] = protein concentration 0.0111429 µM
[5] = protein concentration 0.111429 µM
[6] = protein concentration 0.00828571 µM
[7] = protein concentration 0.0828571 µM
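Further: secreted proteins added to cultured cells, EdU pulse at the end, nuclei found by Hoechst imaging, EdU status from nuclear versus surrounding ring intensity ratio, PBS as neutral control.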

MVWRVPPFLLPILFLASHVGAAVDLTLLANLRLTDPQRFFLTCVSGEAGAGRGSDAWGPPLLLEKDDRIVRTPPGPPLRLARNGSHQVTLRGFSKPSDLVGVFSCVGGAGARRTRVIYVHNSPGAHLLPDKVTHTVNKGDTAVLSARVHKEKQTDVIWKSNGSYFYTLDWHEAQDGRFLLQLPNVQPPSSGIYSATYLEASPLGSAFFRLIVRGCGAGRWGPGCTKECPGCLHGGVCHDHDGECVCPPGFTGTRCEQACREGRFGQSCQEQCPGISGCRGLTFCLPDPYGCSCGSGWRGSQCQEACAPGHFGADCRLQCQCQNGGTCDRFSGCVCPSGWHGVHCEKSDRIPQILNMASELEFNLETMPRINCAAAGNPFPVRGSIELRKPDGTVLLSTKAIVEPEKTTAEFEVPRLVLADSGFWECRVSTSGGQDSRRFKVNVKVPPVPLAAPRLLTKQSRQLVVSPLVSFSGDGPISTVRLHYRPQDSTMDWSTIVVDPSENVTLMNLRPKTGYSVRVQLSRPGEGGEGAWGPPTLMTTDCPEPLLQPWLEGWHVEGTDRLRVSWSLPLVPGPLVGDGFLLRLWDGTRGQERRENVSSPQARTALLTGLTPGTHYQLDVQLYHCTLLGPASPPAHVLLPPSGPPAPRHLHAQALSDSEIQLTWKHPEALPGPISKYVVEVQVAGGAGDPLWIDVDRPEETSTIIRGLNASTRYLFRMRASIQGLGDWSNTVEESTLGNGLQAEGPVQESRAAEEGLDQQLILAVVGSVSATCLTILAALLTLVCIRRSCLHRRRTFTYQSGSGEETILQFSSGTLTLTRRPKLQPEPLSYPVLEWEDITFEDLIGEGNFGQVIRAMIKKDGLKMNAAIKMLKEYASENDHRDFAGELEVLCKLGHHPNIINLLGACKNRGYLYIAIEYAPYGNLLDFLRKSRVLETDPAFAREHGTASTLSSRQLLRFASDAANGMQYLSEKQFIHRDLAARNVLVGENLASKIADFGLSRGEEVYVKKTMGRLPVRWMAIESLNYSVYTTKSDVWSFGVLLWEIVSLGGTPYCGMTCAELYEKLPQGYRMEQPRNCDDEVYELMRQCWRDRPYERPPFAQIALQLGRMLEARKAYVNMSLFENFTYAGIDATAEEA
percentage of EdU-negative (hTERT-HMEC; [1]): 5.57 ± 1.2%
percentage of EdU-negative (hTERT-HMEC; [2]): 5.36 ± 0.036%
percentage of EdU-negative (MCF7; [1]): 23.1 ± 1.1%
percentage of EdU-negative (MCF7; [2]): 26.39 ± 0.034%

MWAGLLLRAACVALLLPGAPARGYTGRKPPGHFAAERRRLGPHVCLSGFGSGCCPGWAPSMGGGHCTLPLCSFGCGSGICIAPNVCSCQDGEQGATCPETHGPCGEYGCDLTCNHGGCQEVARVCPVGFSMTETAVGIRCTDIDECVTSSCEGHCVNTEGGFVCECGPGMQLSADRHSCQDTDECLGTPCQQRCKNSIGSYKCSCRTGFHLHGNRHSCVDVNECRRPLERRVCHHSCHNTVGSFLCTCRPGFRLRADRVSCEAFPKAVLAPSAILQPRQHPSKMLLLLPEAGRPALSPGHSPPSGAPGPPAGVRTTRLPSPTPRLPTSSPSAPVWLLSTLLATPVPTASLLGNLRPPSLLQGEVMGTPSSPRGPESPRLAAGPSPCWHLGAMHESRSRWTEPGCSQCWCEDGKVTCEKVRCEAACSHPIPSRDGGCCPSCTGCFHSGVVRAEGDVFSPPNENCTVCVCLAGNVSCISPECPSGPCQTPPQTDCCTCVPVRCYFHGRWYADGAVFSGGGDECTTCVCQNGEVECSFMPCPELACPREEWRLGPGQCCFTCQEPTPSTGCSLDDNGVEFPIGQIWSPGDPCELCICQADGSVSCKRTDCVDSCPHPIRIPGQCCPDCSAGCTYTGRIFYNNETFPSVLDPCLSCICLLGSVACSPVDCPITCTYPFHPDGECCPVCRDCNYEGRKVANGQVFTLDDEPCTRCTCQLGEVSCEKVPCQRACADPALLPGDCCSSCPDSLSPLEEKQGLSPHGNVAFSKAGRSLHGDTEAPVNCSSCPGPPTASPSRPVLHLLQLLLRTNLMKTQTLPTSPAGAHGPHSLALGLTATFPGEPGASPRLSPGPSTPPGAPTLPLASPGAPQPPPVTPERSFSASGAQIVSRWPPLPGTLLTEASALSMMDPSPSKTPITLLGPRVLSPTTSRLSTALAATTHPGPQQPPVGASRGEESTM [Q96DN2]
percentage of EdU-negative (hTERT-HMEC; [3]): 4.9939 ± 0.0014%
percentage of EdU-negative (hTERT-HMEC; protein concentration 0.085 µM): 5.36 ± 0.4%
percentage of EdU-negative (MCF7; [3]): 25.5 ± 1.1%
percentage of EdU-negative (MCF7; protein concentration 0.085 µM): 26.4 ± 1.8%

MWAPRCRRFWSRWEQVAALLLLLLLLGVPPRSLALPPIRYSHAGICPNDMNPNLWVDAQSTCRRECETDQECETYEKCCPNVCGTKSCVAARYMDVKGKKGPVGMPKEATCDHFMCLQQGSECDIWDGQPVCKCKDRCEKEPSFTCASDGLTYYNRCYMDAEACSKGITLAVVTCRYHFTWPNTSPPPPETTMHPTTASPETPELDMAAPALLNNPVHQSVTMGETVSFLCDVVGRPRPEITWEKQLEDRENVVMRPNHVRGNVVVTNIAQLVIYNAQLQDAGIYTCTARNVAGVLRADFPLSVVRGHQAAATSESSPNGTAFPAAECLKPPDSEDCGEEQTRWHFDAQANNCLTFTFGHCHRNLNHFETYEACMLACMSGPLAACSLPALQGPCKAYAPRWAYNSQTGQCQSFVYGGCEGNGNNFESREACEESCPFPRGNQRCRACKPRQKLVTSFCRSDFVILGRVSELTEEPDSGRALVTVDEVLKDEKMGLKFLGQEPLEVTLLHVDWACPCPNVTVSEMPLIIMGEVDGGMAMLRPDSFVGASSARRVRKLREVMHKKTCDVLKEFLGLH [Q8TEU8]
percentage of EdU-negative (hTERT-HMEC; [4]): 5.48 ± 1.1%
percentage of EdU-negative (hTERT-HMEC; [5]): 6.03 ± 0.2%
percentage of EdU-negative (MCF7; [4]): 25.8 ± 3%
percentage of EdU-negative (MCF7; [5]): 28.02 ± 0.15%

MWAQLLLGMLALSPAIAEELPNYLVTLPARLNFPSVQKVCLDLSPGYSDVKFTVTLETKDKTQKLLEYSGLKKRHLHCISFLVPPPAGGTEEVATIRVSGVGNNISFEEKKKVLIQRQGNGTFVQTDKPLYTPGQQVYFRIVTMDSNFVPVNDKYSMVELQDPNSNRIAQWLEVVPEQGIVDLSFQLAPEAMLGTYTVAVAEGKTFGTFSVEEYVLPKFKVEVVEPKELSTVQESFLVKICCRYTYGKPMLGAVQVSVCQKANTYWYREVEREQLPDKCRNLSGQTDKTGCFSAPVDMATFDLIGYAYSHQINIVATVVEEGTGVEANATQNIYISPQMGSMTFEDTSNFYHPNFPFSGKIRVRGHDDSFLKNHLVFLVIYGTNGTFNQTLVTDNNGLAPFTLETSGWNGTDVSLEGKFQMEDLVYNPEQVPRYYQNAYLHLRPFYSTTRSFLGIHRLNGPLKCGQPQEVLVDYYIDPADASPDQEISFSYYLIGKGSLVMEGQKHLNSKKKGLKASFSLSLTFTSRLAPDPSLVIYAIFPSGGVVADKIQFSVEMCFDNQVSLGFSPSQQLPGAEVELQLQAAPGSLCALRAVDESVLLLRPDRELSNRSVYGMFPFWYGHYPYQVAEYDQCPVSGPWDFPQPLIDPMPQGHSSQRSIIWRPSFSEGTDLFSFFRDVGLKILSNAKIKKPVDCSHRSPEYSTAMGAGGGHPEAFESSTPLHQAEDSQVRQYFPETWLWDLFPIGNSGKEAVHVTVPDAITEWKAMSFCTSQSRGFGLSPTVGLTAFKPFFVDLTLPYSVVRGESFRLTATIFNYLKDCIRVQTDLAKSHEYQLESWADSQTSSCLCADDAKTHHWNITAVKLGHINFTISTKILDSNEPCGGQKGFVPQKGRSDTLIKPVLVKPEGVLVEKTHSSLLCPKGKVASESVSLELPVDIVPDSTKAYVTVLGDIMGTALQNLDGLVQMPSGCGEQNMVLFAPIIYVLQYLEKAGLLTEEIRSRAVGFLEIGYQKELMYKHSNGSYSAFGERDGNGNTWLTAFVTKCFGQAQKFIFIDPKNIQDALKWMAGNQLPSGCYANVGNLLHTAMKGGVDDEVSLTAYVTAALLEMGKDVDDPMVSQGLRCLKNSATSTTNLYTQALLAYIFSLAGEMDIRNILLKQLDQQAIISGESIYWSQKPTPSSNASPWSEPAAVDVELTAYALLAQLTKPSLTQKEIAKATSIVAWLAKQHNAYGGFSSTQDTVVALQALAKYATTAYMPSEEINLVVKSTENFQRTFNIQSVNRLVFQQDTLPNVPGMYTLEASGQGCVYVQTVLRYNILPPTNMKTFSLSVEIGKARCEQPTSPRSLTLTIHTSYVGSRSSSNMAIVEVKMLSGFSPMEGTNQLLLQQPLVKKVEFGTDTLNIYLDELIKNTQTYTFTISQSVLVTNLKPATIKVYDYYLPDEQATIQYSDPCE [A8K2U0]
percentage of EdU-negative (hTERT-HMEC; [6]): 5.09 ± 0.24%
percentage of EdU-negative (hTERT-HMEC; [7]): 5.43 ± 0.39%
percentage of EdU-negative (MCF7; [6]): 23.3 ± 1.1%
percentage of EdU-negative (MCF7; [7]): 29.5 ± 1.8%
